Results on 167 variants are retold here after the Human Domainome abundance scans (Beltran et al. 2025).

± gives the uncertainty stated by the source.

The chains are these.
B1: Ras GTPase-activating protein 1, residues 281 to 341; numbered along this chain, P20936 (parent)
chain: RRRVRAILPYTKVPDTDEISFLKGDMFIVHNELEDGWMWVTNLRTDEQGLIVEDLVEEVGR

Variants of B1 are the subject of this data set. The data set is described as follows: abundance fitness (aPCA) (normalised: wild type 0, dead -1); higher = more abundant; growth selection in yeast, the domain comes from the species named. Conditions: Homo sapiens.
For the variant G36V, the abundance fitness was -0.876 ± 0.044.
To G36D belongs -0.613 ± 0.038; to G36L, -0.6 ± 0.057.
To G36F belongs -0.951 ± 0.065.
As to W37E, the abundance fitness was -0.176 ± 0.036.
For W37I, the abundance fitness was -0.104 ± 0.022.
To W37H belongs 0.044 ± 0.022; to W37T, 0.037 ± 0.024.
For R2Q the value was -0.172 ± 0.065; for R2L, -0.187 ± 0.031; for R2M, -0.053 ± 0.055.
For R2P the value was -0.189 ± 0.044.
For R2F, the abundance fitness is -0.196 ± 0.032.
As for R2E, the abundance fitness was found to be 0.007 ± 0.084.
For R2C the value was -0.347 ± 0.03.
In the case of E32Y, the abundance fitness is -0.03 ± 0.029.
For E32K, the abundance fitness stood at 0.01 ± 0.054.
To E32R belongs -0.053 ± 0.033.
As for E32D, the abundance fitness was -0.026 ± 0.028.
For E32S the value was -0.019 ± 0.026; for L8K, -0.129 ± 0.054; for L8V, -0.039 ± 0.027.
On to L8W, for which the abundance fitness was -0.194 ± 0.043.
As to L8G, the abundance fitness is -0.012 ± 0.026.
For L8R the value was -0.059 ± 0.031; for L8M, 0.044 ± 0.044; for L8H, -0.037 ± 0.032.
For L8A the value was 0.074 ± 0.034; for L8F, -0.075 ± 0.027.
Turning to L8S, the abundance fitness is -0.03 ± 0.025.
Turning to S20I, the abundance fitness is -0.844 ± 0.053.
To S20A belongs -0.669 ± 0.053; to S20N, -0.14 ± 0.03; to S20H, -0.977 ± 0.08.
With S20V, the abundance fitness is -0.972 ± 0.057.
Take L22C: the abundance fitness was -0.124 ± 0.031.
Turning to L22P, the abundance fitness is -1.15 ± 0.19.
For L22E the value was 0.006 ± 0.083; for D46M, -0.014 ± 0.045; for D46E, 0.066 ± 0.056.
As for D46V, the abundance fitness is -0.044 ± 0.024.
D46L: the abundance fitness is -0.08 ± 0.026.
For D46H the value was 0.009 ± 0.028.
As for D46Q, the abundance fitness was -0.11 ± 0.056.
As to I19D, the abundance fitness is -0.941 ± 0.063.
Consider I19K, for which the abundance fitness was -0.934 ± 0.13.
Take I19E: the abundance fitness is -0.881 ± 0.14.
In the case of I19R, the abundance fitness was -0.833 ± 0.05.
With M26C, the abundance fitness is -0.042 ± 0.027.
As for M26E, the abundance fitness stood at 0.117 ± 0.057.
For M26H the value was -0.061 ± 0.034.
To M26L belongs -0.026 ± 0.03; to M26I, -0.039 ± 0.031.
For M26Q the value was -0.056 ± 0.062; for M26K, -0.333 ± 0.083; for V29S, -0.866 ± 0.043.
In the case of V29F, the abundance fitness is -0.913 ± 0.055.
For V29D, the abundance fitness was -0.764 ± 0.043.
For Q48H, the abundance fitness is -0.048 ± 0.03.
Take Q48M: the abundance fitness was -0.107 ± 0.057.
Take Q48G: the abundance fitness was -0.375 ± 0.033.
To Q48E belongs -0.06 ± 0.063.
Regarding Q48T, the abundance fitness was 0.019 ± 0.031.
For Q48A the value was -0.073 ± 0.031; for Q48F, -0.122 ± 0.026; for E57H, -0.224 ± 0.039.
For E57Y the value was -0.357 ± 0.043; for E57A, -0.232 ± 0.048.
E57V: the abundance fitness was -0.107 ± 0.035.
With E57K, the abundance fitness is -0.471 ± 0.12.
Turning to E57L, the abundance fitness is -0.368 ± 0.041.
To E57R belongs -0.197 ± 0.043; to D17H, -0.061 ± 0.03.
To D17E belongs -0.006 ± 0.053; to D17W, -0.136 ± 0.051; to D17L, -0.065 ± 0.033.
For D17R the value was 0.005 ± 0.03; for D17P, -0.088 ± 0.037.
On to D17M, for which the abundance fitness was -0.059 ± 0.044.
D17Q: the abundance fitness was -0.011 ± 0.061.
Take D17S: the abundance fitness is -0.049 ± 0.024.
To D17G belongs -0.094 ± 0.026.
For H30D the value was -0.122 ± 0.031; for H30Y, -0.397 ± 0.034; for H30Q, -0.033 ± 0.056.
For the variant H30V, the abundance fitness was -0.285 ± 0.029.
For H30M the value was -0.151 ± 0.049.
To H30S belongs -0.318 ± 0.026; to D25W, -1.11 ± 0.17; to D25V, -0.904 ± 0.046.
For D25I the value was -0.946 ± 0.059; for D25P, -0.664 ± 0.093; for D25L, -0.852 ± 0.062.
Consider E18I, for which the abundance fitness is -0.35 ± 0.036.
To E18H belongs -0.452 ± 0.041; to E18M, -0.42 ± 0.082; to E18N, -0.809 ± 0.051.
As for V52Q, the abundance fitness is 0.045 ± 0.056.
For V52K the value was 0 ± 0.046.
To M38G belongs -0.78 ± 0.044.
To M38H belongs -0.865 ± 0.061; to M38V, -0.305 ± 0.028; to M38E, -1.24 ± 0.24.
As to M38R, the abundance fitness was -0.505 ± 0.038.
Take M38F: the abundance fitness is -0.18 ± 0.031.
In the case of M38L, the abundance fitness was -0.013 ± 0.031.
As to V59Q, the abundance fitness was -0.055 ± 0.05.
To V59A belongs -0.027 ± 0.032.
Consider V59E, for which the abundance fitness amounted to 0.011 ± 0.053.
For V59C the value was -0.041 ± 0.028.
For V59H the value was -0.124 ± 0.03; for L33R, 0.04 ± 0.03; for L33Q, 0.004 ± 0.05.
To L33G belongs -0.082 ± 0.027; to L33W, -0.136 ± 0.042.
On to L33N, for which the abundance fitness was -0.158 ± 0.03.
To N42I belongs -0.893 ± 0.061.
For N42F the value was -0.782 ± 0.051.
Take N42V: the abundance fitness was -0.963 ± 0.049.
To N42G belongs -0.802 ± 0.036; to N42D, -0.585 ± 0.032.
As for N42C, the abundance fitness was -0.1 ± 0.03.
To P9Q belongs -0.091 ± 0.12; to P9D, 0.049 ± 0.033; to P9G, -0.059 ± 0.03.
For P9K the value was -0.232 ± 0.07; for P9V, -0.855 ± 0.054; for P9N, -0.101 ± 0.031.
To I51V belongs 0.023 ± 0.026; to I51W, -0.826 ± 0.072.
Regarding I51C, the abundance fitness was -0.401 ± 0.03.
With I51Y, the abundance fitness is -0.834 ± 0.048.
Regarding V56T, the abundance fitness is -0.013 ± 0.032.
With V56H, the abundance fitness was -0.93 ± 0.069.
For V56M the value was -0.23 ± 0.056; for V56L, -0.711 ± 0.038.
In the case of V56R, the abundance fitness is -0.846 ± 0.048.
Consider V56D, for which the abundance fitness was -0.887 ± 0.052.
On to V56F, for which the abundance fitness was -0.953 ± 0.047.
For V56C, the abundance fitness is -0.126 ± 0.028.
For V4H the value was -0.739 ± 0.03; for V4A, -0.462 ± 0.026; for K12C, -0.101 ± 0.029.
For K12D the value was -0.806 ± 0.056; for K12S, -0.077 ± 0.027.
K12H: the abundance fitness is -0.184 ± 0.033.
On to G24P, for which the abundance fitness was -1.04 ± 0.11.
Regarding G24N, the abundance fitness was -0.133 ± 0.033.
For the variant G24I, the abundance fitness is -0.933 ± 0.061.
For G24V the value was -0.751 ± 0.036.
For G24M the value was -0.59 ± 0.078; for G24D, -0.07 ± 0.031.
As to R61W, the abundance fitness was determined as 0.07 ± 0.076.
To R61L belongs 0.039 ± 0.037.
For R61H the value was 0.012 ± 0.032; for R61N, 0.02 ± 0.033.
For R61V the value was 0.079 ± 0.039; for T16P, -0.911 ± 0.074.
Turning to T16D, the abundance fitness is -1.01 ± 0.068.
To T16N belongs -0.605 ± 0.037; to T16Y, -0.942 ± 0.06; to T16C, -0.38 ± 0.027.
For T16A the value was -0.746 ± 0.053; for T16V, -0.894 ± 0.047.
For R3N the value was -0.126 ± 0.032.
As for R3L, the abundance fitness was -0.09 ± 0.028.
In the case of R3H, the abundance fitness is -0.096 ± 0.032.
